The source of these data is patent publication US20140087995A1 (published 2014).

Numbered stars: 1 amine (or outer) side, 2 acyl side, 3 side chain; on linkers, the order of the positions; unused ones are H or OH. Bridge positions count the residues as written; N and C are the ends. Side chains are listed from the residue outwards. Ends that are not written are not given here. * marks the point of attachment. C20 diacid = O=C(O)CCCCCCCCCCCCCCCCCCC(=O)*; γGlu = O=C(O)[C@H](CCC(=O)[*:2])N[*:1]

To fix the notation:
T1: human calcitonin receptor (human, UniProt P30988 25-474)
T1 construct: whole, on cells; Used as cell membranes; also called hCTR; hCT
T1 sequence (looked up): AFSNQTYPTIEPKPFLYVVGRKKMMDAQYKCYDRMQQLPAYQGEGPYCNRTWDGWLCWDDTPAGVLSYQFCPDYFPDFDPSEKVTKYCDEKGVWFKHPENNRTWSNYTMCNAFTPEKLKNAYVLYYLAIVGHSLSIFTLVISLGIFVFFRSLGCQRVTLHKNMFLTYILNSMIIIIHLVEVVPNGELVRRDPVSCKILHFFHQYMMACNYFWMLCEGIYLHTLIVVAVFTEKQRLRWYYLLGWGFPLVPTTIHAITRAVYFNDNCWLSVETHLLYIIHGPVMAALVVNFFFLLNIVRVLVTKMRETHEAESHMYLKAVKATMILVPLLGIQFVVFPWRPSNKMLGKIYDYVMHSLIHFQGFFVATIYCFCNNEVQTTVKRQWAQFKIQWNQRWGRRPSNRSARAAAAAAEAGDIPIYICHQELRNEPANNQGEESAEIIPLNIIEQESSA

B1: N^ε1-[(4S)-4-carboxy-4-(19-carboxynonadecanoylamino)butanoyl]-[Glu14,Arg17,Pro21,Pro27,His34,Glu35]-h-amylin (peptide)
peptide: K([γGlu-C20 diacid])CNTATCATQRLAEFLRHSSPNFGAIPSSTNVGHETY-NH2
modifications: disulfide 2-7; N-terminus assumed
SMILES: CC[C@H](C)[C@H](NC(=O)[C@H](C)NC(=O)CNC(=O)[C@H](Cc1ccccc1)NC(=O)[C@H](CC(N)=O)NC(=O)[C@@H]1CCCN1C(=O)[C@H](CO)NC(=O)[C@H](CO)NC(=O)[C@H](Cc1c[nH]cn1)NC(=O)[C@H](CCCNC(=N)N)NC(=O)[C@H](CC(C)C)NC(=O)[C@H](Cc1ccccc1)NC(=O)[C@H](CCC(=O)O)NC(=O)[C@H](C)NC(=O)[C@H](CC(C)C)NC(=O)[C@H](CCCNC(=N)N)NC(=O)[C@H](CCC(N)=O)NC(=O)[C@@H](NC(=O)[C@H](C)NC(=O)[C@@H]1CSSC[C@H](NC(=O)[C@@H](N)CCCCNC(=O)CC[C@H](NC(=O)CCCCCCCCCCCCCCCCCCC(=O)O)C(=O)O)C(=O)N[C@@H](CC(N)=O)C(=O)N[C@@H]([C@@H](C)O)C(=O)N[C@@H](C)C(=O)N[C@@H]([C@@H](C)O)C(=O)N1)[C@@H](C)O)C(=O)N1CCC[C@H]1C(=O)N[C@@H](CO)C(=O)N[C@@H](CO)C(=O)N[C@H](C(=O)N[C@@H](CC(N)=O)C(=O)N[C@H](C(=O)NCC(=O)N[C@@H](Cc1c[nH]cn1)C(=O)N[C@@H](CCC(=O)O)C(=O)N[C@H](C(=O)N[C@@H](Cc1ccc(O)cc1)C(N)=O)[C@@H](C)O)C(C)C)[C@@H](C)O
notes: also called compound 107
B2: N^ε1-[(4S)-4-carboxy-4-[[(4S)-4-carboxy-4-(19-carboxynonadecanoylamino)butanoyl]amino]butanoyl]-[Glu14,Arg17,Pro21,Pro27,Arg34,Glu35]-h-amylin (peptide)
peptide: K([γGlu-γGlu-C20 diacid])CNTATCATQRLAEFLRHSSPNFGAIPSSTNVGRETY-NH2
modifications: disulfide 2-7; N-terminus assumed
SMILES: CC[C@H](C)[C@H](NC(=O)[C@H](C)NC(=O)CNC(=O)[C@H](Cc1ccccc1)NC(=O)[C@H](CC(N)=O)NC(=O)[C@@H]1CCCN1C(=O)[C@H](CO)NC(=O)[C@H](CO)NC(=O)[C@H](Cc1c[nH]cn1)NC(=O)[C@H](CCCNC(=N)N)NC(=O)[C@H](CC(C)C)NC(=O)[C@H](Cc1ccccc1)NC(=O)[C@H](CCC(=O)O)NC(=O)[C@H](C)NC(=O)[C@H](CC(C)C)NC(=O)[C@H](CCCNC(=N)N)NC(=O)[C@H](CCC(N)=O)NC(=O)[C@@H](NC(=O)[C@H](C)NC(=O)[C@@H]1CSSC[C@H](NC(=O)[C@@H](N)CCCCNC(=O)CC[C@H](NC(=O)CC[C@H](NC(=O)CCCCCCCCCCCCCCCCCCC(=O)O)C(=O)O)C(=O)O)C(=O)N[C@@H](CC(N)=O)C(=O)N[C@@H]([C@@H](C)O)C(=O)N[C@@H](C)C(=O)N[C@@H]([C@@H](C)O)C(=O)N1)[C@@H](C)O)C(=O)N1CCC[C@H]1C(=O)N[C@@H](CO)C(=O)N[C@@H](CO)C(=O)N[C@H](C(=O)N[C@@H](CC(N)=O)C(=O)N[C@H](C(=O)NCC(=O)N[C@@H](CCCNC(=N)N)C(=O)N[C@@H](CCC(=O)O)C(=O)N[C@H](C(=O)N[C@@H](Cc1ccc(O)cc1)C(N)=O)[C@@H](C)O)C(C)C)[C@@H](C)O
B3: N^ε1-[(4S)-4-carboxy-4-(19-carboxynonadecanoylamino)butanoyl]-[His14,Arg17,Pro21,Pro27,His35]-h-amylin (peptide)
peptide: K([γGlu-C20 diacid])CNTATCATQRLAHFLRHSSPNFGAIPSSTNVGSHTY-NH2
modifications: disulfide 2-7; N-terminus assumed
SMILES: CC[C@H](C)[C@H](NC(=O)[C@H](C)NC(=O)CNC(=O)[C@H](Cc1ccccc1)NC(=O)[C@H](CC(N)=O)NC(=O)[C@@H]1CCCN1C(=O)[C@H](CO)NC(=O)[C@H](CO)NC(=O)[C@H](Cc1c[nH]cn1)NC(=O)[C@H](CCCNC(=N)N)NC(=O)[C@H](CC(C)C)NC(=O)[C@H](Cc1ccccc1)NC(=O)[C@H](Cc1c[nH]cn1)NC(=O)[C@H](C)NC(=O)[C@H](CC(C)C)NC(=O)[C@H](CCCNC(=N)N)NC(=O)[C@H](CCC(N)=O)NC(=O)[C@@H](NC(=O)[C@H](C)NC(=O)[C@@H]1CSSC[C@H](NC(=O)[C@@H](N)CCCCNC(=O)CC[C@H](NC(=O)CCCCCCCCCCCCCCCCCCC(=O)O)C(=O)O)C(=O)N[C@@H](CC(N)=O)C(=O)N[C@@H]([C@@H](C)O)C(=O)N[C@@H](C)C(=O)N[C@@H]([C@@H](C)O)C(=O)N1)[C@@H](C)O)C(=O)N1CCC[C@H]1C(=O)N[C@@H](CO)C(=O)N[C@@H](CO)C(=O)N[C@H](C(=O)N[C@@H](CC(N)=O)C(=O)N[C@H](C(=O)NCC(=O)N[C@@H](CO)C(=O)N[C@@H](Cc1c[nH]cn1)C(=O)N[C@H](C(=O)N[C@@H](Cc1ccc(O)cc1)C(N)=O)[C@@H](C)O)C(C)C)[C@@H](C)O
notes: also called compound 66
B4: N^ε1-[(4S)-4-carboxy-4-(19-carboxynonadecanoylamino)butanoyl]-[Glu14,Arg17,Pro21,Pro27,Pro34,Glu35]-h-amylin (peptide)
peptide: K([γGlu-C20 diacid])CNTATCATQRLAEFLRHSSPNFGAIPSSTNVGPETY-NH2
modifications: disulfide 2-7; N-terminus assumed
SMILES: CC[C@H](C)[C@H](NC(=O)[C@H](C)NC(=O)CNC(=O)[C@H](Cc1ccccc1)NC(=O)[C@H](CC(N)=O)NC(=O)[C@@H]1CCCN1C(=O)[C@H](CO)NC(=O)[C@H](CO)NC(=O)[C@H](Cc1c[nH]cn1)NC(=O)[C@H](CCCNC(=N)N)NC(=O)[C@H](CC(C)C)NC(=O)[C@H](Cc1ccccc1)NC(=O)[C@H](CCC(=O)O)NC(=O)[C@H](C)NC(=O)[C@H](CC(C)C)NC(=O)[C@H](CCCNC(=N)N)NC(=O)[C@H](CCC(N)=O)NC(=O)[C@@H](NC(=O)[C@H](C)NC(=O)[C@@H]1CSSC[C@H](NC(=O)[C@@H](N)CCCCNC(=O)CC[C@H](NC(=O)CCCCCCCCCCCCCCCCCCC(=O)O)C(=O)O)C(=O)N[C@@H](CC(N)=O)C(=O)N[C@@H]([C@@H](C)O)C(=O)N[C@@H](C)C(=O)N[C@@H]([C@@H](C)O)C(=O)N1)[C@@H](C)O)C(=O)N1CCC[C@H]1C(=O)N[C@@H](CO)C(=O)N[C@@H](CO)C(=O)N[C@H](C(=O)N[C@@H](CC(N)=O)C(=O)N[C@H](C(=O)NCC(=O)N1CCC[C@H]1C(=O)N[C@@H](CCC(=O)O)C(=O)N[C@H](C(=O)N[C@@H](Cc1ccc(O)cc1)C(N)=O)[C@@H](C)O)C(C)C)[C@@H](C)O
B5: N^ε1-[(4S)-4-carboxy-4-(19-carboxynonadecanoylamino)butanoyl]-[His14,Arg17,Pro21,Pro27]-h-amylin (peptide)
peptide: K([γGlu-C20 diacid])CNTATCATQRLAHFLRHSSPNFGAIPSSTNVGSNTY-NH2
modifications: disulfide 2-7; N-terminus assumed
SMILES: CC[C@H](C)[C@H](NC(=O)[C@H](C)NC(=O)CNC(=O)[C@H](Cc1ccccc1)NC(=O)[C@H](CC(N)=O)NC(=O)[C@@H]1CCCN1C(=O)[C@H](CO)NC(=O)[C@H](CO)NC(=O)[C@H](Cc1c[nH]cn1)NC(=O)[C@H](CCCNC(=N)N)NC(=O)[C@H](CC(C)C)NC(=O)[C@H](Cc1ccccc1)NC(=O)[C@H](Cc1c[nH]cn1)NC(=O)[C@H](C)NC(=O)[C@H](CC(C)C)NC(=O)[C@H](CCCNC(=N)N)NC(=O)[C@H](CCC(N)=O)NC(=O)[C@@H](NC(=O)[C@H](C)NC(=O)[C@@H]1CSSC[C@H](NC(=O)[C@@H](N)CCCCNC(=O)CC[C@H](NC(=O)CCCCCCCCCCCCCCCCCCC(=O)O)C(=O)O)C(=O)N[C@@H](CC(N)=O)C(=O)N[C@@H]([C@@H](C)O)C(=O)N[C@@H](C)C(=O)N[C@@H]([C@@H](C)O)C(=O)N1)[C@@H](C)O)C(=O)N1CCC[C@H]1C(=O)N[C@@H](CO)C(=O)N[C@@H](CO)C(=O)N[C@H](C(=O)N[C@@H](CC(N)=O)C(=O)N[C@H](C(=O)NCC(=O)N[C@@H](CO)C(=O)N[C@@H](CC(N)=O)C(=O)N[C@H](C(=O)N[C@@H](Cc1ccc(O)cc1)C(N)=O)[C@@H](C)O)C(C)C)[C@@H](C)O
notes: also called compound 70
B6: N^ε1-[(4S)-4-carboxy-4-(19-carboxynonadecanoylamino)butanoyl]-[His14,Arg17,Pro21,Pro27,His34]-h-amylin (peptide)
peptide: K([γGlu-C20 diacid])CNTATCATQRLAHFLRHSSPNFGAIPSSTNVGHNTY-NH2
modifications: disulfide 2-7; N-terminus assumed
SMILES: CC[C@H](C)[C@H](NC(=O)[C@H](C)NC(=O)CNC(=O)[C@H](Cc1ccccc1)NC(=O)[C@H](CC(N)=O)NC(=O)[C@@H]1CCCN1C(=O)[C@H](CO)NC(=O)[C@H](CO)NC(=O)[C@H](Cc1c[nH]cn1)NC(=O)[C@H](CCCNC(=N)N)NC(=O)[C@H](CC(C)C)NC(=O)[C@H](Cc1ccccc1)NC(=O)[C@H](Cc1c[nH]cn1)NC(=O)[C@H](C)NC(=O)[C@H](CC(C)C)NC(=O)[C@H](CCCNC(=N)N)NC(=O)[C@H](CCC(N)=O)NC(=O)[C@@H](NC(=O)[C@H](C)NC(=O)[C@@H]1CSSC[C@H](NC(=O)[C@@H](N)CCCCNC(=O)CC[C@H](NC(=O)CCCCCCCCCCCCCCCCCCC(=O)O)C(=O)O)C(=O)N[C@@H](CC(N)=O)C(=O)N[C@@H]([C@@H](C)O)C(=O)N[C@@H](C)C(=O)N[C@@H]([C@@H](C)O)C(=O)N1)[C@@H](C)O)C(=O)N1CCC[C@H]1C(=O)N[C@@H](CO)C(=O)N[C@@H](CO)C(=O)N[C@H](C(=O)N[C@@H](CC(N)=O)C(=O)N[C@H](C(=O)NCC(=O)N[C@@H](Cc1c[nH]cn1)C(=O)N[C@@H](CC(N)=O)C(=O)N[C@H](C(=O)N[C@@H](Cc1ccc(O)cc1)C(N)=O)[C@@H](C)O)C(C)C)[C@@H](C)O
notes: also called compound 81

The first assay has as its target T1, human calcitonin receptor. Description: ratio of hCTR IC50 to hAmylin-R IC50 (reference: human amylin receptor). In outline: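 Membranes (35 ng/μL final) + SPA beads, 50 mM Hepes pH 7.4 buffer with 1 mM CaCl2, 5 mM MgCl₂, 0.1% OA, 0.02% Tween20; 120 min, 25° C, shaking; centrifuged, counted; IC₅₀ by one-site binding competition.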
B1: the “Ratio hCT/hAmylin binding” value was determined as 11.1.
Take B2: the “Ratio hCT/hAmylin binding” value was 14.7.
Consider B3, for which the “Ratio hCT/hAmylin binding” value worked out at 45.5.
On to B4, for which the “Ratio hCT/hAmylin binding” value turned out to be 13.3.
Take B5: the “Ratio hCT/hAmylin binding” value came out at 60.8.
For the molecule B6, the “Ratio hCT/hAmylin binding” value came to 87.2.

For the next assay, the target named is T1, human calcitonin receptor. The assay is described as follows: SPA competition on BHK cell membranes, 125I-calcitonin as radioligand (Assay VII). In outline:
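BHK hCTR membranes 35 ng/μL + SPA beads 0.05 mg/well; buffer 50 mM Hepes pH 7.4, 1 mM CaCl2, 5 mM MgCl₂, 0.1% OA, 0.02% Tween20. 120 min, 25° C., shaking. Scintillation count; IC50 by one-site binding competition.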
In general, IC50 refers to the concentration that inhibits the measured activity by half. With B1, the IC50 was 4.28 nM.
The same measure, in the same setting: the same measure for B2: 14.1 nM.
Regarding B3, the IC50 was 18 nM.
Take B4: the IC50 worked out at 1.86 nM.
Regarding B5, the IC50 stood at 10.3 nM.
Take B6: the IC50 was determined as 23.6 nM.
